Series [1] addresses T1, Factor XIIIa (Homo sapiens, UniProt P00488).
T1 construct: purchased Fibrogammin®
T1 sequence (P00488 39-732 limits assumed): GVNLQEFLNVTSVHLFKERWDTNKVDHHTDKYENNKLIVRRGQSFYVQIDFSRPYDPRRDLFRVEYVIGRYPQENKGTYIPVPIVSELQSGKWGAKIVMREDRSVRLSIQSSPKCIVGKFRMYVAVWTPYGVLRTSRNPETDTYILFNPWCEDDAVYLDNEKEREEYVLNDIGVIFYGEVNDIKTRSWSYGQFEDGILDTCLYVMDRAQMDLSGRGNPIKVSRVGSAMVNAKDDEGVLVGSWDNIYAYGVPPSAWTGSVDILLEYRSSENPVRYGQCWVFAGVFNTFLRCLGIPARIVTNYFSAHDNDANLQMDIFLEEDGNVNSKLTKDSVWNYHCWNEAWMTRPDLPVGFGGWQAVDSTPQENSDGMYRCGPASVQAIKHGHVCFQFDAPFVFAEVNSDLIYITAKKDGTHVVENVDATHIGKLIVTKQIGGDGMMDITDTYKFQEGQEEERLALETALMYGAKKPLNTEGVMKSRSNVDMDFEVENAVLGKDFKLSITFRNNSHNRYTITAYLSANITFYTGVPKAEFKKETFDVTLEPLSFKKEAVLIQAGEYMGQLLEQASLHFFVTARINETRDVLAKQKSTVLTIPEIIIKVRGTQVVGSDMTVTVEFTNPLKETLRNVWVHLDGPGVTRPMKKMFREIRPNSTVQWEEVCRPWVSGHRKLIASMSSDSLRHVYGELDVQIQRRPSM
Briefly: Crosslinking of D domain peptides to a glutamine substrate derived from α-2 plasmin inhibitor, catalyzed by FXIIIa, RP-HPLC. Format: biochemical. From the text: Using solid phase peptide synthesis, the isolated peptide sequence of the D domain of human IGF-I (SEQ ID NO: 1) and mouse IGF-I (SEQ ID NO: 6) were synthesized and purified using preparative HPLC to achieve >95% purity. Additionally, a collection of N-terminally truncated versions of both sequences were created, in order to test if 7 or less amino acids are sufficient to be recognized by Factor XIIIa. According to a trypsin digest of coupled IGF-I, only K68 is modified and therefore, a reduction of the sequence to the last 3 amino acids could be possible. The truncated versions were manufactured and purified accordingly. Lyophilized peptides were dissolved in Tris buffer (20 mM Tris-HCl, 150 mM NaCl, pH 7.6) and reacted with a glutamine substrate (SEQ ID NO: 13, derived from α-2 plasmin inhibitor) in presence of 0.1 M calcium chloride and 10 U/ml Factor XIIIa (Fibrogammin®, activated with 0.02 U/ml thrombin). Following 30 minutes incubation at 37° C., the coupling reaction was stopped and the amount of crosslinked peptide analyzed using analytical RP-HPLC. The crosslinking ratios using equimolar amounts of both peptides (D domain and glutamine acceptor) are depicted in Table 1.

Series [2] has as its system fibronectin. In words: Immobilization of dye-D domain conjugate on cell derived, isolated ECM / fibronectin using FXIIIa. Format: biochemical. Conditions: ECM from NIH3T3 fibroblasts (FIG. 2). From the text: As proof of concept (for covalent attachment of a bioactive factor to extracellular matrix (ECM), we modified the D domain of IGF-I (SEQ ID NO: 1) with an dibenzocyclooctyne group (DBCO) at the N-terminus (SEQ: DBCO-PLKPAKSA), followed by coupling of a small molecule (fluorescent dye Azide Fluor 488) onto cell derived, isolated ECM. The ECM was produced by NIH3T3 fibroblasts and on day 6 decellularized and washed to remove cell debris and adsorbed proteins. Taking advantage of the intrinsic property of fibronectin, representing a glutamine donor for Factor XIII, we immobilized the fluorescent dye-D domain conjugate on the N-terminus of fibronectin without impairment of ECM structure and integrity.
FIG. 2: Immobilization of the covalent conjugate of the D domain (SEQ ID NO: 1) and the small molecule Azide Fluor 488 on fibronectin (isolated from human plasma) catalyzed by transglutaminase. The conjugates coupled to fibronectin in absence (lane #1) and presence (lane #2) of Factor XIIIa were transferred to a 5% SDS-PAGE gel and analyzed for fluorescence.
FIG. 3: Confocal laser scanning microscopy images of the Azide Fluor 488-D domain conjugate immobilized on isolated ECM in presence (panel 1) or absence (panel 2) of factor XIIIa. The green fluorescence of the immobilized dye-peptide conjugate co-localized with fibronectin (red fluorescence).

For series [3], the target named is T1, Factor XIIIa. Briefly: Crosslinking of D domain peptides to a glutamine substrate derived from α-2 plasmin inhibitor, catalyzed by FXIIIa, RP-HPLC. Format: biochemical. This is another data set of the same source.
The subject of series [4] is fibronectin. In words: Immobilization of eGFP modified with the D domain on plasma fibronectin and ECM using factor XIIIa. Format: biochemical. As for the experimental part:
The same coupling reaction as described for IGF-I (Example 3) was also performed with enhanced green fluorescent protein (eGFP), previously modified with the D domain of human IGF-I (SEQ ID NO: 1), and immobilized using factor XIIIa (FIGS. 8A-8B). […] FIGS. 8A-8B: (8A) Western Blot of enhanced green fluorescent protein modified with the D domain (SEQ ID NO: 1) (eGFP-D domain, lane #1) after incubation with fibronectin in absence (lane #2) and presence (lane #3) of Factor XIIIa. (8B) Confocal laser scanning microscopy images of eGFP modified with the D domain (SEQ ID NO: 1) and immobilized on isolated ECM in presence (panel 1) or absence (panel 2) of factor XIIIa. The immobilized eGFP was visualized with a monoclonal eGFP antibody (green) und co-localized with fibronectin (red).

The target in a further series is T2, SEQ ID NO: 10 (-AS 67).
T2 chain: KAA

In series [5] the target is T3, N-terminally truncated D domain of mouse IGF-I, SEQ ID NO: 9.
T3 chain: PTKAA

For series [6], the target named is T4, D domain of human IGF-I (SEQ ID NO: 1).
T4 chain: PLKPAKSA

The target of series [7] is T5, N-terminally truncated D domain of mouse IGF-I, SEQ ID NO: 8.
T5 chain: KPTKAA

Series [8] has as its target T6, D domain of mouse IGF-I (SEQ ID NO: 6).
T6 chain: PLKPTKAA

Series [9] has as its target T7, N-terminally truncated D domain of human IGF-I, SEQ ID NO: 5.
T7 chain: AKSA

The next series deals with T8, SEQ ID NO: 5 (-AS 67).
T8 chain: KSA

For series [10], the target named is T9, N-terminally truncated D domain of mouse IGF-I, SEQ ID NO: 7.
T9 chain: LKPTKAA

Series [11] deals with T10, N-terminally truncated D domain of human IGF-I, SEQ ID NO: 4.
T10 chain: PAKSA

Series [12] addresses T11, N-terminally truncated D domain of human IGF-I, SEQ ID NO: 2.
T11 chain: LKPAKSA

In series [13] the target is T12, N-terminally truncated D domain of mouse IGF-I, SEQ ID NO: 10.
T12 chain: TKAA

In series [14] the target is T13, N-terminally truncated D domain of human IGF-I, SEQ ID NO: 3.
T13 chain: KPAKSA

The mark [15] stands for this setting: equimolar peptide and glutamine substrate, incubation for 30 minutes with 10 U/ml FXIIIa, 37° C.

Primed or numbered codes have the meaning given here. Ends that are not written are not given here. DBCO′ = not defined here

As to “AKSA (listed as Homo sapiens) [SEQ ID NO: 5, N-terminally truncated human D domain]”, in the series with Factor XIIIa [1] (setting [15]), the “Crosslinking Efficacy (1:1 molar ratio)*” value came out at 49.52 ± 1.29.
Regarding “Alexa488-D domain: DBCO-PLKPAKSA coupled with fluorescent dye Azide Fluor 488 ({Azide Fluor 488-DBCO′}-PLKPAKSA)”, in the series on fibronectin [2], the “immobilization on ECM” value is “high efficacy”.
Take “KAA (listed as Mus musculus) [SEQ ID NO: 10 (−AS 67)]”: the “Crosslinking Efficacy (1:1 molar ratio)*” value with Factor XIIIa [1] (setting [15]) is 24.68 ± 3.42.
“KPAKSA (listed as Homo sapiens) [SEQ ID NO: 3, N-terminally truncated human D domain]”: the “Crosslinking Efficacy (1:1 molar ratio)*” value with Factor XIIIa [1] (setting [15]) was found to be 58.37 ± 2.10.
On the same count and under the same terms, the same measure for “KPTKAA (listed as Mus musculus) [SEQ ID NO: 8, N-terminally truncated mouse D domain]”: 55.68 ± 3.25.
“KSA (listed as Homo sapiens) [SEQ ID NO: 5 (−AS 67)]”: in the series with Factor XIIIa [1] (setting [15]), the “Crosslinking Efficacy (1:1 molar ratio)*” value turned out to be 21.40 ± 1.96.
With “LKPAKSA (listed as Homo sapiens) [SEQ ID NO: 2, N-terminally truncated human D domain]”, the “Crosslinking Efficacy (1:1 molar ratio)*” value with Factor XIIIa [1] (setting [15]) was found to be 72.45 ± 1.57.
In the case of “LKPTKAA (listed as Mus musculus) [SEQ ID NO: 7, N-terminally truncated mouse D domain]”, the “Crosslinking Efficacy (1:1 molar ratio)*” value in the series with Factor XIIIa [1] (setting [15]) is listed as 69.42 ± 8.62.
As to “PAKSA (listed as Homo sapiens) [SEQ ID NO: 4, N-terminally truncated human D domain]”, the “Crosslinking Efficacy (1:1 molar ratio)*” value with Factor XIIIa [1] (setting [15]) was 44.18 ± 3.23.
“PLKPAKSA (listed as Homo sapiens) [SEQ ID NO: 1, isolated D domain of human IGF-I]”: the “Crosslinking Efficacy (1:1 molar ratio)*” value with Factor XIIIa [3] (molar excess of the glutamine sequence 0.5) amounted to 44.48 ± 2.45; with Factor XIIIa [3] (molar excess of the glutamine sequence 2.5), 84.67 ± 2.02; with Factor XIIIa [3] (molar excess of the glutamine sequence 3.75), 87.53 ± 5.33; with Factor XIIIa [3] (molar excess of the glutamine sequence 5) it was 84.91 ± 6.23; in the series with Factor XIIIa [3] (molar excess of the glutamine sequence 10), 88.67 ± 6.52; with Factor XIIIa [1] (setting [15]) it was 82.94 ± 0.79. In addition, the “Crosslinking Efficacy (1:1 molar ratio)*” value with Factor XIIIa [1] (molar excess of the glutamine sequence 1) is recorded as 81.06 ± 5.13. Also, the “conversion, time course of the coupling reaction with the Q peptide” value with Factor XIIIa [3] (within 10 minutes (FIG. 1)) is “about 80%”.
Take “PLKPTKAA (listed as Mus musculus) [SEQ ID NO: 6, isolated D domain of mouse IGF-I]”: in the series with Factor XIIIa [1] (setting [15]), the “Crosslinking Efficacy (1:1 molar ratio)*” value was 84.16 ± 7.76.
The same measure, in the same setting: the same measure for “PTKAA (listed as Mus musculus) [SEQ ID NO: 9, N-terminally truncated mouse D domain]”: 33.69 ± 1.41; for “TKAA (listed as Mus musculus) [SEQ ID NO: 10, N-terminally truncated mouse D domain]”: 39.26 ± 4.07.
Regarding “eGFP-D domain conjugate: enhanced green fluorescent protein modified with the D domain of human IGF-I (SEQ ID NO: 1) (PLKPAKSA; also: conjugated to eGFP)”, the “conjugation to plasma fibronectin (western blot)” value with fibronectin [4] (factor XIIIa (FIG. 8A)) is “effective conjugation”. For the same molecule, in the series with fibronectin [4] (factor XIIIa (FIG. 8B)), the “immobilization of the modified protein on ECM” value is recorded as “confirmed”.

B1: human Factor XIIIa (Fibrogammin, activated with 0.02 U/ml thrombin) (protein)
chain: GVNLQEFLNVTSVHLFKERWDTNKVDHHTDKYENNKLIVRRGQSFYVQIDFSRPYDPRRDLFRVEYVIGRYPQENKGTYIPVPIVSELQSGKWGAKIVMREDRSVRLSIQSSPKCIVGKFRMYVAVWTPYGVLRTSRNPETDTYILFNPWCEDDAVYLDNEKEREEYVLNDIGVIFYGEVNDIKTRSWSYGQFEDGILDTCLYVMDRAQMDLSGRGNPIKVSRVGSAMVNAKDDEGVLVGSWDNIYAYGVPPSAWTGSVDILLEYRSSENPVRYGQCWVFAGVFNTFLRCLGIPARIVTNYFSAHDNDANLQMDIFLEEDGNVNSKLTKDSVWNYHCWNEAWMTRPDLPVGFGGWQAVDSTPQENSDGMYRCGPASVQAIKHGHVCFQFDAPFVFAEVNSDLIYITAKKDGTHVVENVDATHIGKLIVTKQIGGDGMMDITDTYKFQEGQEEERLALETALMYGAKKPLNTEGVMKSRSNVDMDFEVENAVLGKDFKLSITFRNNSHNRYTITAYLSANITFYTGVPKAEFKKETFDVTLEPLSFKKEAVLIQAGEYMGQLLEQASLHFFVTARINETRDVLAKQKSTVLTIPEIIIKVRGTQVVGSDMTVTVEFTNPLKETLRNVWVHLDGPGVTRPMKKMFREIRPNSTVQWEEVCRPWVSGHRKLIASMSSDSLRHVYGELDVQIQRRPSM
As for B1, the Crosslinking Efficacy (1:1 molar ratio) to the glutamine substrate derived from α2PI, 30 min, 10 U/ml FXIIIa, RP-HPLC with SEQ ID NO: 10 (-AS 67) came out at 24.7%; in series [5] it was 33.7%; in series [6] it was 82.9%; in [7], 55.7%; in [8] it was 84.2%; in series [9], 49.5%. Moreover, the Crosslinking Efficacy (1:1 molar ratio) to the glutamine substrate derived from α2PI, 30 min, 10 U/ml FXIIIa, RP-HPLC with SEQ ID NO: 5 (-AS 67) came to 21.4%; in series [10], 69.4%; in [11], 44.2%; in series [12], 72.5%; in series [13] it was 39.3%; in series [14], 58.4%. Moreover, the “conversion in the time course of the coupling reaction between the Q peptide and the D domain” value in series [6] is recorded as “achieving about 80% conversion within 10 minutes”.
